Experiments:
[1] = molecular target: taxol-stabilized microtubules (polymer of alpha/beta-tubulin), immobilized; assay: single-molecule TIRF microscopy; Kin5_18GFP landing on and dissociating from the lattice of an immobilized microtubule in 1 mM ADP; exponential fit of binding durations
[2] = molecular target: taxol-stabilized microtubules (polymer of alpha/beta-tubulin), immobilized; assay: single-molecule TIRF microscopy; GFP-labelled motor (25 pM) in 1 mM ATP on immobilized taxol-stabilized microtubules; pause lifetimes at plus ends, exponential fit; BRB80 pH 6.8
[3] = molecular target: taxol-stabilized microtubules (polymer of alpha/beta-tubulin), immobilized; assay: single-molecule TIRF microscopy; spiking experiment, crowded conditions: pM GFP-labelled motor mixed with 15-25 nM unlabelled motor; binding durations at plus ends of taxol-stabilized microtubules

Sequence of taxol-stabilized microtubules (polymer of alpha/beta-tubulin), immobilized (P68363 whole entry, chain 1 of 2): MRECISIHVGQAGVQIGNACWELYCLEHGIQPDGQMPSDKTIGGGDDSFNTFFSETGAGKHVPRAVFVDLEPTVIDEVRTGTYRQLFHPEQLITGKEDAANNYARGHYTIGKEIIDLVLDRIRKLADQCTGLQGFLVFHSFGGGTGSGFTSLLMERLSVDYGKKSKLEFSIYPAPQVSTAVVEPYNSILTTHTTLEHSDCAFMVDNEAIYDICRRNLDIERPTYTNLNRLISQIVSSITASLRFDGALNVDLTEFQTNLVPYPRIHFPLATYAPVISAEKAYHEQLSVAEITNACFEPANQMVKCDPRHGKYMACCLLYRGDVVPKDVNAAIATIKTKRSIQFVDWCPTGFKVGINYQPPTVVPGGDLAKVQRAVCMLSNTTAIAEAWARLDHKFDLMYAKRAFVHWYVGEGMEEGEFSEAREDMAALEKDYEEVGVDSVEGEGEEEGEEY
Sequence of taxol-stabilized microtubules (polymer of alpha/beta-tubulin), immobilized (A8K068 whole entry, chain 2 of 2, further chain): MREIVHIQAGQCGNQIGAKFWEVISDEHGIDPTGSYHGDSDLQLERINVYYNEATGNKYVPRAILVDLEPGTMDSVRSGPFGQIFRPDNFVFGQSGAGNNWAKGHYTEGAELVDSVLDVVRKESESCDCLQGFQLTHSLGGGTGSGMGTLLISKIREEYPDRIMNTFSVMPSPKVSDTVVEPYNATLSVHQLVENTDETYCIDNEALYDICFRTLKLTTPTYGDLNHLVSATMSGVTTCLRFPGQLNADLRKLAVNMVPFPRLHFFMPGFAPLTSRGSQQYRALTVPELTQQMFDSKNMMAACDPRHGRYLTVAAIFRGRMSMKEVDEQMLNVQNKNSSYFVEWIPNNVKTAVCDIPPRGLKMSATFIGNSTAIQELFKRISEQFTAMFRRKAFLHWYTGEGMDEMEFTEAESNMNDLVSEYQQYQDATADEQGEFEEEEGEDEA

mean binding duration on the microtubule lattice in 1 mM ADP [1]: 1.07 s
mean pause duration at plus ends [2]: 7 s
end duration at plus ends under crowded conditions [3]: 2.26 s
Substance: Kin5_18GFP (dimeric kinesin-5: motor domain and native 18-residue neck linker of Xenopus laevis Eg5 fused to the proximal coiled coil of Drosophila conventional kinesin heavy chain, GFP-tagged)
